# Residue numbers refer to the chain shown, from its start.
# T1: hCXCR3 (human, UniProt P49682 1-368)
# T1 construct: whole, on cells; also called human CXCR3 transfected L1.2 cells
# T1 sequence (looked up): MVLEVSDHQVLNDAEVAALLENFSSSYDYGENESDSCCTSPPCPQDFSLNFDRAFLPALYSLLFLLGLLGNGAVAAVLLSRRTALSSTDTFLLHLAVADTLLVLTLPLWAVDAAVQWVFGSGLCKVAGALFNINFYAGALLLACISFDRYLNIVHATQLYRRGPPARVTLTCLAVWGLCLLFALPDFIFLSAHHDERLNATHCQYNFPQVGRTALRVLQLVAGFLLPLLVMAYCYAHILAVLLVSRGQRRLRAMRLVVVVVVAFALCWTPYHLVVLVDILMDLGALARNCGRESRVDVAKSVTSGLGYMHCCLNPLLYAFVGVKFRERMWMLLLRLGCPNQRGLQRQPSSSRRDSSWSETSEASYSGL
# T2: human CCR6 (human, UniProt P51684 1-374)
# T2 construct: also called hCCR6; CD196
# T2 sequence: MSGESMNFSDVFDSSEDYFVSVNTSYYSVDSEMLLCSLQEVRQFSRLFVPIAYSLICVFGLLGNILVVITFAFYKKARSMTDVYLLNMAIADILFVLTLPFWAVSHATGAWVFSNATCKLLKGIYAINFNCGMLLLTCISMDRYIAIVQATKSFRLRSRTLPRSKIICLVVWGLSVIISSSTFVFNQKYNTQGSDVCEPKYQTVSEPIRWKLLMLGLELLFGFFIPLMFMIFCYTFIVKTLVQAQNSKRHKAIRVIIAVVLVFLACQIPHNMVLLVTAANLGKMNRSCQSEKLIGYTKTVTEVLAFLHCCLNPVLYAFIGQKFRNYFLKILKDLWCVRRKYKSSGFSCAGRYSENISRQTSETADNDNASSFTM
# T3: Peptide 1 (amino acid position 1-28 of the human CCR6) (human, biotinylated)
# T3 construct: also called first 28 AA
# T3 peptide: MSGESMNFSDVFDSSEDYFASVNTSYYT
# T4: hCXCR1 (human, UniProt P25024 1-350)
# T4 construct: whole, on cells; also called hCXCRI; human CXCR1 transfected L1.2 cells
# T4 sequence (looked up): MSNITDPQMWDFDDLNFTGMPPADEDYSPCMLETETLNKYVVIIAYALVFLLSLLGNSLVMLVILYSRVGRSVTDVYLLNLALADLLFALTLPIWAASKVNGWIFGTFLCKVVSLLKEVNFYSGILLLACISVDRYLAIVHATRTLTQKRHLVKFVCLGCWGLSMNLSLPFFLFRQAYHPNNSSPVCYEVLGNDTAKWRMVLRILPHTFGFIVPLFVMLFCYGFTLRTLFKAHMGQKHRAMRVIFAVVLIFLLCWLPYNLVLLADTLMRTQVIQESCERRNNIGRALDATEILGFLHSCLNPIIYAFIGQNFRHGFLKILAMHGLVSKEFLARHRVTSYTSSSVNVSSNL
# T5: hCXCR2 (human, UniProt P25025 1-360)
# T5 construct: whole, on cells; also called human CXCR2 transfected L1.2 cells
# T5 sequence (looked up): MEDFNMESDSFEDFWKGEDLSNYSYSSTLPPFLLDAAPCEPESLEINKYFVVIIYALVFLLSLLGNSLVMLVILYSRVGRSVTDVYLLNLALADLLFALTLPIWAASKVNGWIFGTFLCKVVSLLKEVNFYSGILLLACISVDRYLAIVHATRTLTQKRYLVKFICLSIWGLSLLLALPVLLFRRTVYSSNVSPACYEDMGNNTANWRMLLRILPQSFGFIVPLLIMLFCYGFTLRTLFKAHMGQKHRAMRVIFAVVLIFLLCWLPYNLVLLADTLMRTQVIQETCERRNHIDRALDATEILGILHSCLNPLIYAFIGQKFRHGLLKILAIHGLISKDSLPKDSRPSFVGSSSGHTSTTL
# B1: AB1 (antibody, V domains shown)
# VH: EVNLVESGGGLVQPGGSLKLSCAASGFTFSDYYMYWVRQTPEKRLEWVTYITNGDGRTYYSDTVRGRFTISRDNAKNTLYLQMSRLKSEDTAMYYCTSPPLGGAWFGYWGQGTLVTVS
# VL: DVLMTQTPLSLPVSLGDQASISCRSSQSIVHSNGNTYLEWYLQKPGQSPKLLIYKVSKRFSGVPDRFSGSGSGTDFTLKISRVEAEDLGVYYCFQGSHVPLTFGAGTKLELKR
# notes: Mouse hybridoma antibody, isotype IgG1; also called AB1-O17
# B2: hAB6 mutant 1-21/WT (antibody, V domains shown)
# VH: EVQLVESGGGLVQPGGSLRLSCAASGFPFSDYYLYWVRQAPGKGLEWVAYITNGVGRTYYSDSVKGRFTISRDNAKNTLYLQMNSLRDEDTAVYYCTSPPLGGAWFGYWGQGTLVTVS
# VL: DIVMTQSPLSLPVTPGEPASISCRSSQSIVHSNGNTYLEWYLQKPGQSPRLLIYKVSKRFSGVPDRFSGSGSGTDFTLKISRVEAEDVGVYYCFQGSHVPLTFGQGTKLEIKR
# notes: IgG1 format
# B3: hAB6 mutant 1-21/3-3 (antibody, V domains shown)
# VH: B2 VH
# VL: B2 VL with Q27R
# notes: IgG1 format
# B4: hAB6 mutant WT/3-3 (antibody, V domains shown)
# VH: B2 VH with G107A
# VL: B2 VL with Q27R
# notes: IgG1 format
# B5: hAB6 mutant 1-23/3-3 (antibody, V domains shown)
# VH: B2 VH with A23V
# VL: B2 VL with Q27R
# notes: IgG1 format
# B6: hAB6 mutant 1-23/WT (antibody, V domains shown)
# VH: B2 VH with A23V
# VL: B2 VL
# notes: IgG1 format
# B7: humanized AB6 mAb (antibody, V domains shown)
# VH: B2 VH with G107A
# VL: B2 VL
# notes: also called hAB6; hAB6-IgG1
# What was measured:
# hCXCR3 = target: T1, hCXCR3; experiment: flow cytometry, hybridoma culture supernatant on L1.2/hCXCR3 transfectants
# Experimental: (§1) Monoclonal antibodies reactive with CCR6 were identified using human CCR6 transfected L1.2 cells, and untransfected L1.2 cells, or L1.2 cells transfected with unrelated or closely receptors such as hCXCRI, hCXCR2 or hCXCR3 using immunofluorescent staining and analysis using a FACSCalibur (BD Biosciences). Monoclonal antibody staining of cells was performed using standard procedures as described previously (Lee et al., 2006, Nat. Biotech. 24:1279-1284).
# (§2) L1.2 transfectants expressing high levels of hCCR6 were used to immunize mice, and approximately 40 monoclonal antibodies were initially identified via flow cytometry that reacted with L1.2 cells transfected with hCCR6, of which approximately 10 reacted specifically with L1.2/hCCR6 transfectants but not with untransfected L1.2 cells or with L1.2 cells transfected with the closely related receptors hCXCRI, hCXCR2 or hCXCR3 (FIG. 3).
# human CCR6 [1] = target: T2, human CCR6; experiment: competition with 125I-MIP-3α for L1.2/hCCR6 transfectants, partially purified mAb
# Experimental: For ligand binding analysis, recombinant human CCL20 (MIP3α) (“ligand”) was obtained from Peprotech (New Jersey, USA). […] Cells were washed once in binding buffer (50 mM Hepes, pH 7.5, 1 mM CaCl, 5 mM MgCb, 0.5% BSA) and resuspended in binding buffer at a concentration of 2.5×10^6 cells/ml. Cold Purified monoclonal antibody or diluted hybridoma culture medium (cold competitor) was added to a 96-well plate followed by an equal volume (40 μl) binding buffer containing 1×10^5 cells. Cells and competitor were preincubated at room temperature for 15 min. Then radiolabeled ligand (final concentration 0.5-2 nM) was added to each well to give a final reaction volume of 120 μl. After a 60-min incubation at room temperature, the cells were washed three times with 1 ml of binding buffer containing 150 mM NaCl. The radioactivity (amount of bound label) in the cell pellets was counted in a TopCount liquid scintillation counter (Packard). Non-specific background binding was calculated by incubating cells […]. Samples were assayed in duplicate.
# After incubation and washing the amount of label bound to cells was measured and the percentage inhibition determined by comparison to a control reaction with no added antibody (FIGS. 1 and 5).
# [2] = target: T3, Peptide 1 (amino acid position 1-28 of …); experiment: ELISA, biotinylated peptide on a streptavidin-coated plate
# Experimental: Two overlapping biotinylated peptides spanning the entire N-terminal region of human CCR6 were then synthesized and used in more defined anti-CCR6 mAb epitope mapping studies. Peptide 1 ([…], SEQ ID NO: 2) corresponds to amino acid position 1-28 of the human CCR6 and Peptide 2 ([…], SEQ ID NO: 101) corresponds to amino acid position 18-46 of the human CCR6. Briefly, multiwell plates were coated with streptavidin and washed before the biotinylated peptides were added to separate wells and incubated to facilitate binding of the peptides to the plate. Different anti-human CCR6 antibodies were then tested by adding the respective antibodies to the wells of the plate and incubating the plate. An isotype control and buffer only were included as negative controls. Following washing, appropriate conjugated antibodies were added and the plates were incubated. The plates were washed again and binding of the antibodies to the immobilised peptides was visualised (FIGS. 8 and 9).
# hCXCR1 = target: T4, hCXCR1; experiment: flow cytometry, hybridoma culture supernatant on L1.2/hCXCR1 transfectants
# Experimental: as §1, §2
# hCXCR2 = target: T5, hCXCR2; experiment: flow cytometry, hybridoma culture supernatant on L1.2/hCXCR2 transfectants
# Experimental: as §1, §2
# human CCR6 [3] = target: T2, human CCR6; experiment: FACS binding assay on hCCR6 L1.2 cells, PE-conjugated anti-human Fc detection; 1-21/WT mutant
# Experimental: (§3) Binding characteristics of hAB6 and mutants hAB6-IgG1 to human CCR6 was performed using a FACS binding assay using cell line expressing human CCR6 (L1.2 human CCR6). Approximately 2.5 10⁵ hCCR6 L1.2 cells/test were washed with FACS binding buffer (FBB) (PBS, 0.5% BSA, 0.1% NaN3 (pH 7.4)), and stained with hAB6 or hAB6 mutants (4.4 μg/ml) and serial 3-fold dilutions of antibodies. After 1 h on ice, the cells were washed with FBB (pH 7.4) and with an anti-human Fc antibody PE-conjugated (Jackson ImmunoResearch). After 30 min on ice, the cells were washed 3 times with FBB (pH 7.4), and resuspended in 1% formaldehyde, and analyzed using a FACS LSR flow cytometer (BD Immunocytometry Systems). EC₅₀ values were calculated using GraphPad Prism.
# human CCR6 [4] = target: T2, human CCR6; experiment: FACS binding assay on hCCR6 L1.2 cells, PE-conjugated anti-human Fc detection; 1-21/3-3 mutant
# Experimental: as §3
# human CCR6 [5] = target: T2, human CCR6; experiment: FACS binding assay on hCCR6 L1.2 cells, PE-conjugated anti-human Fc detection; WT/3-3 mutant
# Experimental: as §3
# human CCR6 [6] = target: T2, human CCR6; experiment: FACS binding assay on hCCR6 L1.2 cells, PE-conjugated anti-human Fc detection; 1-23/3-3 mutant
# Experimental: as §3
# human CCR6 [7] = target: T2, human CCR6; experiment: FACS binding assay on hCCR6 L1.2 cells, PE-conjugated anti-human Fc detection; 1-23/WT mutant
# Experimental: as §3
# human CCR6 [8] = target: T2, human CCR6; experiment: FACS binding assay on hCCR6 L1.2 cells, PE-conjugated anti-human Fc detection; hAB6 (WT/WT)
# Experimental: as §3
binder,measurement,setting,value
B1,binding result,hCXCR3,no binding (tested: not given (culture supernatant))
same,binding result,human CCR6 [1],binds
same,binding result,[2],binds
same,binding result,hCXCR1,no binding (tested: not given (culture supernatant))
same,binding result,hCXCR2,no binding (tested: not given (culture supernatant))
B2,EC50,human CCR6 [3],0.46 nM
B3,EC50,human CCR6 [4],0.41 nM
B4,EC50,human CCR6 [5],3.2 nM
B5,EC50,human CCR6 [6],1.2 nM
B6,EC50,human CCR6 [7],0.39 nM
B7,EC50,human CCR6 [8],3.4 nM

# — patent US20240109971A1 (MONASH UNIVERSITY, published 2024)
